Reference: the supplement of paper PMC9170038

Test system: MS2 coat protein
Assay: apparent KD of MS2 coat protein; designed switch direction (-1 OFF switch, 1 ON switch): 1; higher = weaker reporter binding
Procedure, shortened: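 RNA switches sharing common flanks were transcribed by stalled E. coli RNA polymerase on Illumina chips. A doubling series of SNAP-549-labelled MS2 coat protein, from 0.7 or 1.5 nM to 3 µM, was applied in Tris-HCl pH 7.5 buffer with KCl, MgCl2, BSA, DTT, tRNA and Tween-20. Each step lasted 0.8–1.5 h at the bottom of the series and 10–20 min at the top. Normalised cluster fluorescence was curve-fitted, giving apparent KD as the per-design median over clusters.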

[1] = input ligand: microRNA oligo, concentration not stated
[2] = Eterna round: R95, input ligand: FMN 200 uM
[3] = Eterna round: R95, input ligand: microRNA oligo, concentration not stated
[4] = Eterna round: R95, input ligand: none

| Sequence | apparent KD of MS2 coat protein (input ligand: FMN 200 uM) [nM] | apparent KD of MS2 coat protein [1] [nM] | apparent KD of MS2 coat protein (input ligand: none) [nM] | other results |
| --- | --- | --- | --- | --- |
| UGUUAUUAGACAGGAUAUUGAUUGUAAAGUUUUUACAUGAGGAUCACCCAUGUUGUUCAUUCGAACAAGAAGGGUCAAGUUUUU [JR_SSNG2_Sub018] (Eterna round: R96, puzzle: Same State NG 2) | 153 | 35.9 | 137 |  |
| UGUUGUAAUACAGGAUAUCUAUUAUUUUUAUUUAGAGAAGGGUAAUCACAUGAGGAUCACCCAUGUAUAUACGAGGAAGAAGAG [JMF's solution 4] (Eterna round: R96, puzzle: Same State NG 1) |  | 126 |  |  |
| UGUUGUAUUACAGGAUAUCUAGAAUUUUUAUUUAGAGAAGGGUAUUCACAUGAGGAUCACCCAUGUAUAUACGAGGAAGUUGUG [JMF's solution 30] (Eterna round: R96, puzzle: Same State NG 1) |  | 27.9 |  |  |
| UGUUGUAUUACAGGAUAUCUAGUAUUUUGAUUUAGAGAAGGGUAUUCACAUGAGGAUCACCCAUGUAUAUACGAGGAAGUUGUG [JMF's solution 44] (Eterna round: R96, puzzle: Same State NG 1) |  | 44 |  |  |
| UGUUGUAUUACAGGAUAUCUAGUAUUUUUAUUGAGAGAAGGGUAUUCACAUGAGGAUCACCCAUGUAUAUACGAGGAAGUUGUG [JMF's solution 55] (Eterna round: R96, puzzle: Same State NG 1) |  | 34.8 |  |  |
| UGUUGUAUUACAGGAUAUCUAUGAUUUAUAUUUAGAGAAGGGUAUUCACAUGAGGAUCACCCAUGUAUAUACGAGGAAGUUGUG [JMF's solution 61] (Eterna round: R96, puzzle: Same State NG 1) |  | 33.6 |  |  |
| UGUUGUAUUACAGGAUAUCUAUGAUUUUUUUUUAGAGAAGGGUAUUCACAUGAGGAUCACCCAUGUAUAUACGAGGAAGUUGUG [JMF's solution 65] (Eterna round: R96, puzzle: Same State NG 1) |  | 39.8 |  |  |
| UGUUGUAUUACAGGAUAUCUAUGGUUUUUAUUUAGAGAAGGGUAUUCACAUGAGGAUCACCCAUGUAUAUACGAGGAAGUUGUG [JMF's solution 58] (Eterna round: R96, puzzle: Same State NG 1) |  | 41.6 |  |  |
| UGUUGUAUUACAGGAUAUCUAUUAGGUUUAUUUAGAGAAGGGUAUUCACAUGAGGAUCACCCAUGUAUAUACGAGGAAGUUGUG [JMF's solution 87] (Eterna round: R96, puzzle: Same State NG 1) |  | 41.8 |  |  |
| UGUUGUAUUACAGGAUAUCUAUUAGUUUUAUUUAGAGAAGGGUAUUCACAUGAGGAUCACCCAUGUAUAUACGAGGAAGUUGUG [JMF's solution 14] (Eterna round: R96, puzzle: Same State NG 1) |  | 42.2 |  |  |
| UGUUGUAUUACAGGAUAUCUAUUAUGUUUAUUUAGAGAAGGGUAUUCACAUGAGGAUCACCCAUGUAUAUACGAGGAAGUUGUG [JMF's solution 16] (Eterna round: R96, puzzle: Same State NG 1) |  | 37.5 |  |  |
| UGUUGUAUUACAGGAUAUCUAUUAUUAUUAUUUAGAGAAGGGUAUUCACAUGAGGAUCACCCAUGUAUAUACGAGGAAGUUGUG [JMF's solution 17] (Eterna round: R96, puzzle: Same State NG 1) |  | 33.8 |  |  |
| UGUUGUAUUACAGGAUAUCUAUUAUUGUUAUUUAGAGAAGGGUAUUCACAUGAGGAUCACCCAUGUAUAUACGAGGAAGUUGUG [JMF's solution 18] (Eterna round: R96, puzzle: Same State NG 1) |  | 39.9 |  |  |
| UGUUGUAUUACAGGAUAUCUAUUAUUUAUAUUUAGAGAAGGGUAUUCACAUGAGGAUCACCCAUGUAUAUACGAGGAAGUUGUG [JMF's solution 19] (Eterna round: R96, puzzle: Same State NG 1) |  | 36.4 |  |  |
| UGUUGUAUUACAGGAUAUCUAUUAUUUUAAUUUAGAGAAGGGUAUUCACAUGAGGAUCACCCAUGUAUAUACGAGGAAGUUGUG [JMF's solution 21] (Eterna round: R96, puzzle: Same State NG 1) |  | 38.4 |  |  |
| UGUUGUAUUACAGGAUAUCUAUUAUUUUUAGUUAGAGAAGGGUAUUCACAUGAGGAUCACCCAUGUAUAUACGAGGAAGUUGUG [JMF's solution 26] (Eterna round: R96, puzzle: Same State NG 1) |  | 35.7 |  |  |

| Sequence | apparent KD of MS2 coat protein (input ligand: FMN 200 uM) [nM] | apparent KD of MS2 coat protein [1] [nM] | apparent KD of MS2 coat protein (input ligand: none) [nM] | other results |
| --- | --- | --- | --- | --- |
| UGUUGUAUUACAGGAUAUCUAUUAUUUUUAUAUAGAGAAGGGUAUUCACAUGAGGAUCACCCAUGUAUAUACGAGGAAGUUGUG [JMF's solution 28] (Eterna round: R96, puzzle: Same State NG 1) |  | 29.6 |  |  |
| UGUUGUAUUACAGGAUAUCUAUUGUUAUUAUUUAGAGAAGGGUAUUCACAUGAGGAUCACCCAUGUAUAUACGAGGAAGUUGUG [JMF's solution 74] (Eterna round: R96, puzzle: Same State NG 1) |  | 33 |  |  |
| UGUUGUAUUACAGGAUAUCUAUUGUUUUAAUUUAGAGAAGGGUAUUCACAUGAGGAUCACCCAUGUAUAUACGAGGAAGUUGUG [JMF's solution 76] (Eterna round: R96, puzzle: Same State NG 1) |  | 40.6 |  |  |
| UGUUGUAUUACAGGAUAUCUAUUGUUUUUAUUUAGAGAAGGGUAUUCACAUGAGGAUCACCCAUGUAUAUACGAGGAAGUUGUG [JMF's solution 12] (Eterna round: R96, puzzle: Same State NG 1) |  | 40.6 |  |  |
| UGUUGUUAAUUAGGAUAUGGACACAUGAGGAUCACCCAUGUAAUGUCGAUGCUAUGUGGACACGUUCAGAAGGAAUGGCUAACA [SameState NG2 #92] (Eterna round: R96, puzzle: Same State NG 2) | 29.7 | 53.2 | 58.4 |  |
| UGUUGUUAAUUAGGAUAUGGUCACAUGAGGAUCACCCAUGUAAUGUCGAUGCUAUGUGGAUACGAUCAGAAGGAAUGGCUAACA [SameState NG2 #94] (Eterna round: R96, puzzle: Same State NG 2) | 93.3 | 225 | 175 |  |
| UUAAAACAUGAGGAUCACCCAUGUCAACAAAGUCGAGGAUAUGGGCAAUUAUUAUUAGAACCAGAAGGCGAAUAUU [Mat - Same State 1 - Mod of UCT - D28] (puzzle: Same State 1) |  |  |  | apparent KD of MS2 coat protein [2]: 27.1 nM; apparent KD of MS2 coat protein [3]: 260 nM; apparent KD of MS2 coat protein [4]: 289 nM |
| UUAAGCAGCGGGCAGGAUAUGUAUUAAAAUACAUGAGGAUCACCCAUGUGCAGGUGUAACACCUGACAGAAGGGCCAAUCGGUGC [Soteed - 9] (puzzle: Same State 2) |  |  |  | apparent KD of MS2 coat protein [2]: 36.3 nM; apparent KD of MS2 coat protein [3]: 197 nM; apparent KD of MS2 coat protein [4]: 329 nM |
| UUAAUAAUGUAAGGAUAUACAUGAGGAUUUCUCGUAGAAGGUACAGGACAUGAGGAUCACCCAUGUAUCGCUCAGAAGAGCGUA [Mat - Same State NG 1 - JL mod - D24] (Eterna round: R96, puzzle: Same State NG 1) | 1400 | 715 | 1750 |  |
| UUAAUAAUGUAAGGAUAUACAUGAGGAUUUCUCGUAGAAGGUACAGGACAUGAGGAUCACCCAUGUAUCGCUCCGUAGAGCGUA [Mat - Same State NG 1 - JL mod - D23] (Eterna round: R96, puzzle: Same State NG 1) | 601 | 228 | 299 |  |
| UUAAUAAUGUAAGGAUAUACAUGAGGAUUUCUCGUAGAAGGUACAGGACAUGAGGAUCACCCAUGUAUCGCUCGAAAGAGCGUA [Mat - Same State NG 1 - JL mod - D25] (Eterna round: R96, puzzle: Same State NG 1) | 521 | 217 | 1130 |  |
| UUAAUAAUGUUAGGAUAUACAUGAGGAAUCCUCGUAGAAGGAACAUGACAUGAGGAUCACCCAUGUAGCGCUCGAAAGAGCGCA [Mat - Same State NG 1 - JL mod - D48] (Eterna round: R96, puzzle: Same State NG 1) | 25.6 | 16.3 | 417 |  |
| UUAAUGAAGUAAGGAUAUACAUGAGGAUCACUCGUAGAAGGUACUAUACAUGAGGAUCACCCAUGUUCCGGUCAGAAGACUGGA [Mat - Same State NG 1 - JL mod - D3] (Eterna round: R96, puzzle: Same State NG 1) | 598 | 411 | 316 |  |
| UUAAUGAUGUAAGGAUAUACAUGAGGAAAUCUCGUAGAAGGUACAGGACAUGAGGAUCACCCAUGUGUCGCUCAGAAGAGCGUA [Mat - Same State NG 1 - JL mod - D18] (Eterna round: R96, puzzle: Same State NG 1) | 86.3 | 39.6 | 71.2 |  |
| UUAAUUAAUUAAUUAUACAUGAGGAUCACCCAUGUAAGUGAUCAGGAUAUCAGCUCGUUUAGAGCUGAGAAGGGAUACAUGUAA [SSNG3/13-A3] (Eterna round: R96, puzzle: Same State NG 3) | 111 | 139 | 214 |  |
